Legend:
[1] = molecular target: TrkB of BDNF-responsive neurons from embryonic chick nodose ganglia (chick)
TrkB [2] = molecular target: T1, TrkB (Rattus norvegicus (Rat), UniProt Q63604); experiment: competition with 125I-BDNF on rtrkB-3T3 cells
Protocol: (§1) Purified mouse NGF and BDNF were labeled with ^125I by the lactoperoxidase method to an average specific activity of 1×10^8 cpm/μg. For the labeling of BDNF, the modifications described by Rodriguez-Tebar et al. ([Rodriguez-Tebar, 1992]) were used. NIH3T3 fibroblasts expressing TrkA, TrkB or TrkC were used at 2 to 1–×10^6 cells/ml. Steady state binding was measured in competition assays performed at 4° C. using 1.5×10^-9M ^125I-BDNF and serial dilutions of conditioned media containing equivalent amounts of wt or mutated NGF protein. All components were added at the same time and the cells were collected by centrifugation after equilibrium was reached (90–120 minutes incubation). Cell pellets were then counted in a gamma counter. […] Nonspecific binding was measured in a parallel incubation to which 300 to 1000-fold molar excess of unlabelled purified factor was added. All results were corrected for this nonspecific binding, which was less than 10% (for NGF) or 30% (for BDNF) of total binding. The concentration of each chimeric, mutant and wild type molecule that gave 50% binding (IC$50$) was determined, and relative binding was calculated using the relationship:(mutant IC$50$/wild type IC$50$)X 100.

[3] = molecular target: TrkA of NGF-responsive neurons from embryonic chick sympathetic ganglia (chick)
TrkB [4] = molecular target: T1, TrkB; experiment: competition with 125I-BDNF on rtrkB-3T3 cells, COS conditioned medium, relative binding from IC50
Protocol: as §1

TrkA [5] = molecular target: T2, TrkA (Rattus norvegicus (Rat), UniProt P35739); experiment: competition with 125I-NGF on rtrkA-3T3 cells, COS conditioned medium, relative binding from IC50
Protocol: (§2) FIG. 2A–D. TrkA receptor binding, receptor phosphorylation and biological activity of wild-type (wt) and chimeric molecules (see SEQ. ID. NOS. 1 and 2 for all chimeric constructions). […] Each point represents the mean of triplicate determinations. Standard deviation was at or generally below ±10%. (B) and (C) Tyrosine phosphorylation of TrkA receptors stimulated by wt NGF, wt BDNF and chimeric molecules. rtrkA-3T3 cells were treated with 100 ng/ml of the indicated recombinant proteins and assayed for tyrosine phosphorylation. Media from mock-transfected COS cells was used as negative control (CONTROL). Arrowhead indicates the migration of phosphorylated TrkA (p140^trk). The faster migrating band correspond to constituitively phosphorylated p140^trk precursors ([Kaplan, 1991]). (D) Serial dilutions of transfected COS cell conditioned medium containing equal amounts of wt and chimeric factors were assayed for their ability to stimulate neurite outgrowth from E8 chick sympathetic ganglia. Data from three determinations varied by ±20% of the average values reported here. Key symbols as in (A).
Purified mouse NGF and BDNF were labeled with ^125I by the lactoperoxidase method to an average specific activity of 1×10^8 cpm/μg. For the labeling of BDNF, the modifications described by Rodriguez-Tebar et al. ([Rodriguez-Tebar, 1992]) were used. NIH3T3 fibroblasts expressing TrkA, TrkB or TrkC were used at 2 to 1–×10^6 cells/ml. […] All components were added at the same time and the cells were collected by centrifugation after equilibrium was reached (90–120 minutes incubation). Cell pellets were then counted in a gamma counter.

TrkA [6] = molecular target: T2, TrkA; experiment: competition with 125I-NGF on rtrkA-3T3 cells
Protocol: as §1, with “Steady state binding was measured in competition assays performed at 4° C. using 1.5×10^-9M ^125I-BDNF and serial dilutions of conditioned media containing equivalent amounts of wt or mutated NGF protein.” left out
Figure 3A: FIG. 3A&B. NGF variable regions I, IV and V partially restore TrkA binding and biological activity of the NH_2+I+III+IV+V chimeric molecule (see SEQ. ID. NOS. 1 and 2 for all chimera construction). […] Each point represents the mean of triplicate determinations.

[7] = molecular target: TrkB (Rattus norvegicus (Rat)) (UniProt Q63604)
TrkA [8] = molecular target: T2, TrkA; experiment: competition with 125I-NGF on rtrkA-3T3 cells; remark: listed apart in the source
Protocol: as §2
Purified mouse NGF and BDNF were labeled with ^125I by the lactoperoxidase method to an average specific activity of 1×10^8 cpm/μg. For the labeling of BDNF, the modifications described by Rodriguez-Tebar et al. ([Rodriguez-Tebar, 1992]) were used. […] Cell pellets were then counted in a gamma counter.

Sequence of TrkB of BDNF-responsive neurons from embryonic chick nodose ganglia (chick) (Q91987 whole entry): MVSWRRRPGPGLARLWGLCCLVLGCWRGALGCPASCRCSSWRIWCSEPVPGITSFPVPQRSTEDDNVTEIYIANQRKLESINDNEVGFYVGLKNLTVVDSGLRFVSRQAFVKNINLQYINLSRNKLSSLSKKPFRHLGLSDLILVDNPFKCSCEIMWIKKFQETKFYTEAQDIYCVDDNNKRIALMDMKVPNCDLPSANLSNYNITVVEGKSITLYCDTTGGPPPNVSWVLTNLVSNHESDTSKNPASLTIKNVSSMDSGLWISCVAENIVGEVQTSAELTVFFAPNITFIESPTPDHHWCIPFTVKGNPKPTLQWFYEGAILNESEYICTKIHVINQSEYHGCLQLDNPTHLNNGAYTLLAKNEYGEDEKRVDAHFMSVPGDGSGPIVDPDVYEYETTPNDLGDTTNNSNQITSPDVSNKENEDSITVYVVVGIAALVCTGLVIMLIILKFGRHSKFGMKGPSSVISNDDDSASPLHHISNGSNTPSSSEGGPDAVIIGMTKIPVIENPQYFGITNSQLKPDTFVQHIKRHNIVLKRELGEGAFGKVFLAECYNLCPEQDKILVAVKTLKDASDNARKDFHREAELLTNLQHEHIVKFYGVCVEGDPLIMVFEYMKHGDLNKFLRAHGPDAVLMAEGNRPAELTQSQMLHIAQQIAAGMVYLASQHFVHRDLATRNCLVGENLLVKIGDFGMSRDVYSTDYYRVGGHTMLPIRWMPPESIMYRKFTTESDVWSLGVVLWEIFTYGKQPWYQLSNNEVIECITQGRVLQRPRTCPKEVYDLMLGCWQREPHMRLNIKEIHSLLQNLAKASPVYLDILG

Binder | Biological Activity % of wild type (maximal cell survival of dissociated embryonic nodose neurons) (% of wild type) [1] | binding result (TrkB [2]) | Biological Activity % of wild type (neurite outgrowth from explants of embryonic sympathetic ganglia) (% of wild type) [3] | Receptor Binding % of wild type (TrkB [4]) | Receptor Binding % of wild type (TrkA [5]) | fold reduction in receptor binding against wt NGF (TrkA [6]) [fold] | EC50 of TrkB tyrosine phosphorylation [7] [ng/mL] | binding result (TrkA [8])
wild-type rat nerve growth factor (ligand) SSTHPVFHMGEFSVCDSVSVWVGDKTTATDIKGKEVTVLGEVNINNSVFKQYFFETKCRAPNPVESGCRGIDSKHWSNYCTTTHTFVKALTTDDKQAAWRFIRIDTACVCVLSRKAARRG | < 5 | no binding (tested: <0,2 % of wild type) | 100 | < 0.2 % of wild type | 100 % of wild type |  |  | 
NGF mutant I31A (ligand) SSTHPVFHMGEFSVCDSVSVWVGDKTTATDAKGKEVTVLGEVNINNSVFKQYFFETKCRAPNPVESGCRGIDSKHWSNYCTTTHTFVKALTTDDKQAAWRFIRIDTACVCVLSRKAARRG |  |  | 25 |  | 20 % of wild type | 4 |  | 
wild-type brain-derived neurotrophic factor (ligand) HSDPARRGELSVCDSISEWVTAADKKTAVDMSGGTVTVLEKVPVSKGQLKQYFYETKCNPMGYTKEGCRGIDKRHWSNQCRTTQSYVRALTMDSKKRIGWRFIRIDTSCVCTLTIKRGR | 100 |  | < 0.2 | 100 % of wild type | < 0.2 % of wild type |  | 5 | no binding (tested: <0,2 % of wild type)

Reference: patent publication US5488099, “Multifunctional chimeric neurotrophic factors” (dated 1996)
